Data as given in article PMC3228830, “Targeted Proteolysis of Plectin Isoform 1a Accounts for Hemidesmosome Dysfunction in Mice Mimicking the Dominant Skin Blistering Disease EBS-Ogna” (PLoS Genetics, 2011).

Target: the molecule itself
Experiment: SEC-MALS; Superose 6 10/300 GL column, 0.5 ml/min, protein 2 mg/ml, load 75 ul

B1: His-tagged wild-type plectin rod domain (pNV10) (domain or fragment)
chain: IKFISETLRRMEEEERLAEQQRAEERERLAEVEAALEKQRQLAEAHAQAKAQAELEAQELQRRMQEEVARREEAAVDAQQQKRSIQEELQHLRQSSEAEIQAKAQQVEAAERSRMRIEEEIRVVRLQLETTERQRGGAEGELQALRARAEEAEAQKRQAQEEAERLRRQVQDESQRKRQAEAELALRVKAEAEAAREKQRALQALDELRLQAEEAERRLRQAEAERARQVQVALETAQRSAEVELQSKRASFAEKTAQLERTLQEEHVTVAQLREEAERRAQQQAEAERAREEAERELERWQLKANEALRLRLQAEEVAQQKSLAQADAEKQKEEAEREARRRGKAEEQAVRQRELAEQELEKQRQLAEGTAQQRLAAEQELIRLRAETEQGEQQRQLLEEELARLQHEATAATQKRQELEAELAKVRAEMEVLLASKARAEEESRSTSEKSKQRLEAEAGRFRELAEEAARLRALAEEAKRQRQLAEEDAARQRAEAERVLTEKLAAISEATRLKTEAEIALKEKEAENERLRRLAEDEAFQRRRLEEQAALHKADIEERLAQLRKASESELERQKGLVEDTLRQRRQVEEEIMALKVSFEKAAAGKAELELELGRIRSNAEDTMRSKEQAELEAARQRQLAAEEEQRRREAEERVQRSLAAEEEAARQRKVALEEVERLKAKVEEARRLRERAEQESARQLQLAQEAAQKRLQAEEKAHAFVVQQREEELQQTLQQEQNMLDRLRSEAEAARRAAEEAEEAREQAEREAAQSRKQVEEAERLKQSAEEQAQAQAQAQAAAEKLRKEAEQEAARRAQAEQAALKQKQAADAEMEKHKKFAEQTLRQKAQVEQELTTLRLQLEETDHQKSILDEELQRLKAEVTEAARQRSQVEEELFSVRVQMEELGKLKARIEAENRALILRDKDNTQRFLEEEAEKMKQVAEEAARLSVAAQEAARLRQLAEEDLAQQRALAEKMLKEKMQAVQEATRLKAEAELLQQQKELAQEQARRLQEDKEQMAQQLVEETQGFQRTLEAERQRQLEMSAEAERLKLRMAEMSRAQARAEEDAQRFRKQAEEIGEKLHRTELATQEKVTLVQTLEIQRQQSDHDAERLREAIAELEREKEKLKQEAKLLQLKSEEMQTVQQEQILQETQALQKSFLSEKDSLLQRERFIEQEKAKLEQLFQDEVAKAKQLREEQQRQQQQMEQEKQELMASMEEARRRQREAEEGVRRKQEELQHLEQQRQQQEKLLAEENQRLRERLQRLEEEHRAALAHSEIATT
- stoichiometry N: 2
